From US20200216558A1 (US Dept. of Health and Human Services, published 2020)

B1: VH single domain antibody LH1 (phage clone) (VHH)
VHH: QVQLVQSGGGLVQPGGSLRLSCAASDFDFAAYEMSWVRQAPGKGLEWIGEINHSGSTTYNPSLKSRVTISRDNSKNTLYLQMNTLRAEDTAVYYCATAVHYYDSSGYYHDAFDIWGQGTLVTVSS
notes: Human VH single domain (not camelid)
B2: VH single domain antibody LH4 (phage clone) (VHH)
VHH: QVQLVQSGGGLVQPGGSLRLSCAASSFYFDDYEMSWVRQAPGKALEWIGRIYTSGSTNYNPSLKSRVTISRDNSKNTLYLQMNTLRAEDTATYYCARGYCSGGSCYFDYWGQGTLVTVSS
notes: Human VH single domain
B3: VH single domain antibody LH2 (phage clone) (VHH)
VHH: QVQLVQSGGGLVQPGGSLRLSCAASDFYFYSYEVSWVRQAPGKALEWIGYIYYSGSTTYNPSLKSRVTISRDNSKNTLYLQMNTLRAEDTAIYYCAVRDNWNDVDYWGQGTLVTVSS
notes: Human VH single domain
B4: VH single domain antibody LH3 (phage clone) (VHH)
VHH: QVQLVQSGGGLVQPGGSLRLSCAASSFSFADYEMSWVRQAPGKALEWIGRIYTSGSTNYNPSLKSRVTISRDNSKNTLYLQMNTLRAEDTATYYCARGYSGYDGSHYFDYWGQGTLVTVSS
notes: Human VH single domain
B5: VH single domain antibody LH6 (phage clone) (VHH)
VHH: QVQLVQSGGGLVQPGGSLRLSCAASDFYFDDYEMSWVRQAPGKGLEWVSTISGSGGGTYYADSVKGRFTISRDNSKNTLYLQMNTLRAEDTATYYCARGYSYDDSRYFDYWGQGTLVTVSS
notes: Human VH single domain
B6: VH single domain antibody LH7 (phage clone) (VHH)
VHH: QVQLVQSGGGLVQPGGSLRLSCAASDFYFYDYEMSWVRQAPGKGLEWIGTVSYSGSTYYNPSLKSRVTISRDNSKNTLYLQMNTLRAEDTAMYYCARGYSYDDSRYFDYWGQGTLVTVSS
notes: Human VH single domain
B7: LH7-Fc fusion protein (Fc fusion)
chain: B6 VHH
notes: Soluble LH7 as used in Octet, flow cytometry and HEK293 Supertopflash assays; also called LH7 antibody; LH7 single domain antibody; not shown: Fc: antibodies were fused with either human Fc (hFc) or mouse IgG Fc (mFc); which one was used in this assay, its subcla
B8: LH7-PE38 monomeric immunotoxin (other)
VH: B6 VHH
B9: LH1-PE38 (other)
VH: B1 VHH
notes: One of the three immunotoxins of group m11; also called LH1-PE38 immunotoxin
B10: LH4-PE38 (other)
VH: B2 VHH
notes: One of the three immunotoxins of group m11; also called LH4-PE38 immunotoxin

Target: T1, recombinant GPC2-hFc fusion protein (human, UniProt Q8N158 24-553)
T1 construct: range 24-553; Made in 293T cells with an IL-2 secretion signal (not part of the secreted protein); biotinylated for the Octet assay; also called GPC2 protein; recombinant human GPC2; not shown: human IgG Fc (hFc) at the C terminus
T1 sequence (looked up): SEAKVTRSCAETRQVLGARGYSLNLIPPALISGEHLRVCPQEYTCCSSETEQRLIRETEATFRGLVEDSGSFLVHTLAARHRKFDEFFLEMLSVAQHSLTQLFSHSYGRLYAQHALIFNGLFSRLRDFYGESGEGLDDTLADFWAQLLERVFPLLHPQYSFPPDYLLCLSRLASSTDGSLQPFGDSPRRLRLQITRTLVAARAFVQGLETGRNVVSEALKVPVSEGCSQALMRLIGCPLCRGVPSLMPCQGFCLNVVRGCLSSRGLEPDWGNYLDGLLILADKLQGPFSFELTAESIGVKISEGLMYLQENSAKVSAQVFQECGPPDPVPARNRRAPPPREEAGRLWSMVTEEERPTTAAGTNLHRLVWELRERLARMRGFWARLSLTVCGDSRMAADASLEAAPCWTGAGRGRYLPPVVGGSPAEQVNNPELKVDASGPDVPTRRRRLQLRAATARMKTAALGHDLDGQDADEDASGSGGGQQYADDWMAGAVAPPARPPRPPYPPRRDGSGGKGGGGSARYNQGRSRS
Experiment: monoclonal phage ELISA, coated GPC2-hFc vs BSA

With B1 as the binder, how does the “fold OD450 nm on GPC2-hFc over BSA” value read?
Its value is no less than 5 fold.

For B2, which “fold OD450 nm on GPC2-hFc over BSA” value is on record?
The value was no less than 5 fold.

B3 was tested. Which “fold OD450 nm on GPC2-hFc over BSA” value did it give?
The value was no less than 5 fold.

Which “fold OD450 nm on GPC2-hFc over BSA” value does the source give for B4 here?
The value was no less than 5 fold.

B5 was tested. Which “fold OD450 nm on GPC2-hFc over BSA” value did it give?
The value was no less than 5 fold.

How did the “fold OD450 nm on GPC2-hFc over BSA” value turn out when B6 was run?
The value was no less than 5 fold.

Target: T2, recombinant human GPC1 (human, UniProt P35052 24-530, limits assumed)
T2 sequence (looked up): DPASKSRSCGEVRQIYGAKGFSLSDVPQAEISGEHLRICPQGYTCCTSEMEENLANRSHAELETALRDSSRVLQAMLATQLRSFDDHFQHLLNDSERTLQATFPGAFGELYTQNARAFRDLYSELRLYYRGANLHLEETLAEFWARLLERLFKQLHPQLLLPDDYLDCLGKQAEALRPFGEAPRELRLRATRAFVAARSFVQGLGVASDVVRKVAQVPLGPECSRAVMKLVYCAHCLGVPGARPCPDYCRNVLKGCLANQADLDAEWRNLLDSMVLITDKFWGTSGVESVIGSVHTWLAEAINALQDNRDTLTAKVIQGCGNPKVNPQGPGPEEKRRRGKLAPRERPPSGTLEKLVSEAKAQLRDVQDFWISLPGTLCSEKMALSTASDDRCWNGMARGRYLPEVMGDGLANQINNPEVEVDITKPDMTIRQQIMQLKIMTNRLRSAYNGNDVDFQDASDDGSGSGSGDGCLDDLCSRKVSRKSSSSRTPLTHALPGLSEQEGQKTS
Experiment: monoclonal phage ELISA on recombinant glypicans
Experimental: (§1) Both plate and phage were blocked with 3% skim milk in PBS/0.05% Tween-20 for 1 hour at room temperature. Then pre-blocked phage supernatant was added to the plate. Binding was detected by HRP-conjugated mouse anti-M13 antibody (GE Healthcare).

Does B1 bind?
Result: no binding

Does B2 bind?
Result: no binding

Does B3 bind?
Result: no binding

Does B4 bind?
Result: binds

Does B5 bind?
Result: no binding

Does B6 bind?
Result: no binding

Target: recombinant human GPC3 (human, UniProt P51654 25-559, limits assumed)
Experiment: monoclonal phage ELISA on recombinant glypicans
Experimental: as §1

Sequence of recombinant human GPC3 (P51654 25-559 limits assumed): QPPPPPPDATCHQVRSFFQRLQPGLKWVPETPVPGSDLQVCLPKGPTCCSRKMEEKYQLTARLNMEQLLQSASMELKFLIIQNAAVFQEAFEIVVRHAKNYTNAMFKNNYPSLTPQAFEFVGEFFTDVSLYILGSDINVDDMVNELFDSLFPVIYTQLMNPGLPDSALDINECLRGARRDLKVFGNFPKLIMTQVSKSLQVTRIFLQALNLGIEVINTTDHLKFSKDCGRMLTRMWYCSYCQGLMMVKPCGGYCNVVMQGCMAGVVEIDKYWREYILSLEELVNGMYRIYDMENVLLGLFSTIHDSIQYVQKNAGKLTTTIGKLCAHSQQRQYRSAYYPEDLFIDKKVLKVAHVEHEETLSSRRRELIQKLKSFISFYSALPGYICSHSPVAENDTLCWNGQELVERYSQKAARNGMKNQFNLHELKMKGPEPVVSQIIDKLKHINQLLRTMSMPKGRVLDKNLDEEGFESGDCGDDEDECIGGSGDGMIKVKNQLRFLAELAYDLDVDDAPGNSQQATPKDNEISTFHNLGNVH

Does B1 bind?
Result: no binding

Does B2 bind?
Result: no binding

Does B3 bind?
Result: no binding

Does B5 bind?
Result: no binding

Does B6 bind?
Result: no binding

Target: T3, recombinant mouse GPC2 (mouse, UniProt Q8BKV1 22-556, limits assumed)
T3 sequence (looked up): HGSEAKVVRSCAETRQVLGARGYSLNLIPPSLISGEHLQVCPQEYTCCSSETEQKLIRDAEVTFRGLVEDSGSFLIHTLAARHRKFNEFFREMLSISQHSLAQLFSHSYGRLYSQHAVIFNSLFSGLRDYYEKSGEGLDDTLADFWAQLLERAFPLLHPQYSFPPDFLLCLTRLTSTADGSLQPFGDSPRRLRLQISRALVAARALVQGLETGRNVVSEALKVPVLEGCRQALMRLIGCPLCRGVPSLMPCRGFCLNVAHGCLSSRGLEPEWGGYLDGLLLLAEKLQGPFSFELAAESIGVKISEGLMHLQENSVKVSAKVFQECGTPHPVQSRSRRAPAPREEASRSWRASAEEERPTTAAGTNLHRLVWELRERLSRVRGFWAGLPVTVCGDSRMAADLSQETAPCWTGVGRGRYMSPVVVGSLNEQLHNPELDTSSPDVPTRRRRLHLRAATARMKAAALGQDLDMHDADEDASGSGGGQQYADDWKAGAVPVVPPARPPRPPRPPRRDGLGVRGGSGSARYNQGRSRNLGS
Experiment: monoclonal phage ELISA on recombinant glypicans
Experimental: as §1

Does B1 bind?
Result: no binding

Does B2 bind?
Result: binds

Does B3 bind?
Result: no binding

Does B4 bind?
Result: binds

Does B5 bind?
Result: binds

Does B6 bind?
Result: no binding

Target: T1, recombinant GPC2-hFc fusion protein
Experiment: Octet RED96 BLI, biotinylated GPC2-hFc on streptavidin biosensors, 30 °C
Experimental: (§2) Briefly, all experiments were performed at 30° C. and reagents were prepared in 0.1% BSA, 0.1% Tween20 PBS, pH 7.4 buffer. […] Data analysis was performed using the Fort\tilde{e}Bio analysis software provided with the instrument.

For B7, which Kd is on record?
Its Kd is 9.8 nM.

Target: T1, recombinant GPC2-hFc fusion protein
Experiment: ELISA, coated GPC2-hFc, detection with anti-Pseudomonas exotoxin A antibody
Experimental: Then a series of diluted immunotoxins were added to each well. Anti-Pseudomonas exotoxin A antibody (Sigma-Aldrich) and HRP-conjugated secondary antibody (Jackson Immunoresearch) were used to detect binding. EC₅₀ values were determined by Prism 6.0 software (GraphPad).

For B8, which EC50 is on record?
Its EC50 is 18 nM.

Target: T1, recombinant GPC2-hFc fusion protein
Experiment: ELISA on coated GPC2-hFc, detection with anti-Pseudomonas exotoxin A antibody and HRP secondary

How did the EC50 turn out when B9 was run?
Its EC50 is 4.55 nM.

What about the “EC50 (read off the curve)” value of the same binder?
The value was roughly 0.2 µg/mL.

For B10, which EC50 is on record?
The EC50 was 43.9 nM.

Which results are given for B8?
EC50: 18.4 nM; EC50 (read off the curve): ~1 µg/mL

Target: T1, recombinant GPC2-hFc fusion protein
Experiment: Octet RED96 biolayer interferometry, biotinylated GPC2-hFc on streptavidin biosensors, LH7 at 1000, 500 and 100 nM
Experimental: as §2

What does the source list for B7?
koff: 0.00052 s⁻¹; kon: 53100 M⁻¹ s⁻¹
